Consider one substance from patent US20230203172A1.

This assay addresses human IL-4R alpha on cells (TF-1 cells; human peripheral blood mononuclear cells) (human) (UniProt P24394). Nature of the assay: cell-based or functional assay.

Substance Dupilumab (antibody) had an IC50 (ng/ml), inhibition of IL-4-induced TF-1 cell proliferation of 138 ng/mL.
